According to doi:10.1101/2024.05.01.592117:

How the values were obtained:
[1] = molecular target: 40S small ribosomal subunit (salt-washed, purified) (human) (UniProt P23396); test: fluorescence polarisation
[2] = molecular target: 43S preinitiation complex (40S + eIFs 1, 1A, 5, 3j, eIF2-TC and eIF3) (human) (UniProt P23396); test: fluorescence polarisation
[3] = molecular target: 43S preinitiation complex (40S + eIFs 1, 1A, 5, 3j, eIF2-TC and eIF3) (human) (UniProt P23396); test: native gel or EMSA

Chain of fluorescence-labeled Pdcd4-NTD (FL-Pdcd4-NTD, residues 1-156) (Q53EL6 1-156): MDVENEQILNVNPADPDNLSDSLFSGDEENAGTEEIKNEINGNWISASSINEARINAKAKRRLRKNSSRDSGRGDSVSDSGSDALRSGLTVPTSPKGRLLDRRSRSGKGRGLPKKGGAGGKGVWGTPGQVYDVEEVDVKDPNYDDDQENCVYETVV
Chain of Pdcd4 (programmed cell death 4), wild type, residues 1-469 (Q53EL6 whole entry, the tested form may be a part): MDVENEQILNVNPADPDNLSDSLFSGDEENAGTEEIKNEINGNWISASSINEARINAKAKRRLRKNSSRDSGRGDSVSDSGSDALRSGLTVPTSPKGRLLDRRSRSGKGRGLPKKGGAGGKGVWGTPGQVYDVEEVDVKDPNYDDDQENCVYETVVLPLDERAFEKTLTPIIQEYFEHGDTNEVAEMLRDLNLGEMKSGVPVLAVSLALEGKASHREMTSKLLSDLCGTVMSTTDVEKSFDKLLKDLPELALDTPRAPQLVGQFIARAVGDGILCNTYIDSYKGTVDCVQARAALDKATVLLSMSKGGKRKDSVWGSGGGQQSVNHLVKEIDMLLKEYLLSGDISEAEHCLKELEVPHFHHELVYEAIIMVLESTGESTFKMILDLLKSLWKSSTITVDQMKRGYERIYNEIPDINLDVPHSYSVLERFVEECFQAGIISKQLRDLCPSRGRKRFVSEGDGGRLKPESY
Chain of fluorescence-labeled full-length Pdcd4 (FL-Pdcd4) (Q53EL6 whole entry): as the sequence (Q53EL6 whole entry, the tested form may be a part) above
Chain of Pdcd4-NTD (residues 1-156), unlabeled (Q53EL6 1-156): as the sequence (Q53EL6 1-156) above

| fold reduction in affinity against the 40S alone [1] [fold] | fold reduction in affinity against the 40S alone [2] [fold] | percent binding compared to the 40S (lane 2) [3] [%] | Substance | Ki [1] [nM] |
| --- | --- | --- | --- | --- |
|  |  |  | Pdcd4 (programmed cell death 4), wild type, residues 1-469 (from UniProt Q53EL6 1-469) (natural protein) | 23 |
|  |  |  | Pdcd4-NTD (residues 1-156), unlabeled (from UniProt Q53EL6 1-156) (domain or fragment) | 21 |
| > 10 | > 100 | < 20 | fluorescence-labeled Pdcd4-NTD (FL-Pdcd4-NTD, residues 1-156) (from UniProt Q53EL6 1-156) (domain or fragment) |  |
|  |  | < 20 | fluorescence-labeled full-length Pdcd4 (FL-Pdcd4) (from UniProt Q53EL6 1-469) (natural protein) |  |
